Target: SARS-CoV-2 HexaPro spike protein, wild type (SARS-CoV-2 wild type (GenBank …, UniProt A0A679G9E9, F817 to proline | A892 to proline | A899 to proline | A942 to proline | K986 to …))
Assay: BLI
Details: both partners purified

B1: S2-E12 (antibody, V domains shown)
VH: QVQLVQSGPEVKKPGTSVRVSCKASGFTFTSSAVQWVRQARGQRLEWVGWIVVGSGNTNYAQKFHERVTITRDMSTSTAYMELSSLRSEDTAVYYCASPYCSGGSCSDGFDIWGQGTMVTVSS
VL: DIVLTQTPGTLSLSPGERATLSCRASQSVSSSYLAWYQQKPGQAPRLLIYGASSRATGIPDRFSGSGSGTDFTLTISRLEPEDFAVYYCQQYVGLTGWTFGQGTKVEIK
binding result: binds
